Data on two molecules can be found in US20150037348A1 (AbbVie / Abbott, published 2015).

Experiment [1] deals with T1, recombinant human IL-12 (rhIL-12) (human, UniProt P29459 23-219; P29460 23-328).
T1 construct: disulfide-linked p35/p40 heterodimer (p70); also called IL-12 p70; rec. human IL12
T1 sequence (looked up) 1: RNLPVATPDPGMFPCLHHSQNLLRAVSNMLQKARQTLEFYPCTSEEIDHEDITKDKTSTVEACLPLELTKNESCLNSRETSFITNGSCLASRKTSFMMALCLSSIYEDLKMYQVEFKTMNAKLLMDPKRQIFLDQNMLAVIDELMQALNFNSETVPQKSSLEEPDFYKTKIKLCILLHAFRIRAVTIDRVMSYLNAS
T1 sequence (looked up) 2: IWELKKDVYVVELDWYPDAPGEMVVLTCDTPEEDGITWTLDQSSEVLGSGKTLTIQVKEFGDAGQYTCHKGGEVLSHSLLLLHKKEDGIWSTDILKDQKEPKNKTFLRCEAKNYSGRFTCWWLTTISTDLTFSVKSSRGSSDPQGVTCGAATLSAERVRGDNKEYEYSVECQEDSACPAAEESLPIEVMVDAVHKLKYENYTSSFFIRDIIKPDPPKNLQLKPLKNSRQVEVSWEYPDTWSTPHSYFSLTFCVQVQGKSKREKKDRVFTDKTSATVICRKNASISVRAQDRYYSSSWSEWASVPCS
The experiment in a line: BIAcore, captured J695, soluble rhIL-12, mean of three experiments. The protocol: Three independent experiments were performed, and the values shown are averages for the three experiments. From these measurements, the apparent dissociation (kd) and association (kₐ) rate constants were derived and used to calculate a Kd value for the interaction (see Table 10).

The target in experiment [2] is T1, recombinant human IL-12 (rhIL-12). Description: cell-based or functional assay.
Experiment [3] deals with T2, dog IL-12 (PBMC supernatant) (dog, UniProt Q28267 26-222; Q28268 23-329).
T2 sequence (looked up) 1: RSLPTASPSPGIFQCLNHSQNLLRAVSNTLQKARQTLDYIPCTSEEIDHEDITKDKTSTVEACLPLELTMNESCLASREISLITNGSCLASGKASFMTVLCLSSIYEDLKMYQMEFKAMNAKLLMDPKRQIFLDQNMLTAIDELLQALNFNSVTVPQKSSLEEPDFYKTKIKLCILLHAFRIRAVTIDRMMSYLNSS
T2 sequence (looked up) 2: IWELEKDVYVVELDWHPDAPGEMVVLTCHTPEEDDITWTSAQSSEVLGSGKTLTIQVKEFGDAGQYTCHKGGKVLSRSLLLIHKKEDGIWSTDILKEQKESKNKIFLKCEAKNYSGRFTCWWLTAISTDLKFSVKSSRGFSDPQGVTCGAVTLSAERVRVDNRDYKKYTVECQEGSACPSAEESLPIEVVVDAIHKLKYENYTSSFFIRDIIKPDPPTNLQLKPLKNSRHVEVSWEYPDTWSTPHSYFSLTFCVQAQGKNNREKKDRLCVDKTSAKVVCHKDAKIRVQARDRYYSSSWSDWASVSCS
The experiment in a line: cell-based or functional assay.

Experiment [4] has as its target T1, recombinant human IL-12 (rhIL-12). Description: receptor binding assay, 125I-hIL-12 on PHA blasts.
The target in another experiment is T3, recombinant murine IL-12 (mouse, UniProt P43431 23-215; P43432 23-335).
T3 construct: rmIL12 of R&D Systems, Cat. No. 419-ML, in the BIAcore test; also called mouse IL-12; rmIL12
T3 sequence (looked up) 1: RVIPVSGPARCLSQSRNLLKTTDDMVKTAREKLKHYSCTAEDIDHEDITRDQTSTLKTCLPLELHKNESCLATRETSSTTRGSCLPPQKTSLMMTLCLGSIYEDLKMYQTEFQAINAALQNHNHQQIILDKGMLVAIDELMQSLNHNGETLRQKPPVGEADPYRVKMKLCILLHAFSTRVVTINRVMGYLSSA
T3 sequence (looked up) 2: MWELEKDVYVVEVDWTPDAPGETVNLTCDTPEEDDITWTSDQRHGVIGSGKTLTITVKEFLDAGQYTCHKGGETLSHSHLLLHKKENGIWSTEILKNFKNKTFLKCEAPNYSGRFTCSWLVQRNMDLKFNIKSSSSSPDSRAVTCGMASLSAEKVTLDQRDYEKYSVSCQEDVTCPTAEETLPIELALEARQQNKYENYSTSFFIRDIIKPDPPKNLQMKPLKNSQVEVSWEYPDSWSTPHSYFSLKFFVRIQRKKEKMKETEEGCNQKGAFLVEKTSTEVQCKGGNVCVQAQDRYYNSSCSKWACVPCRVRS
The experiment in a line: BIAcore, COS J695 captured via goat anti-human IgG, cytokine in solution. The protocol:
Before injection of the protein and immediately afterward, HBS buffer alone flowed through each flow cell. […] Cytokines were diluted in HBS running buffer and 50 μl aliquots were injected through the immobilized protein matrices at a flow rate of 5 μl/min. […] The net difference in baseline signal and signal after completion of cytokine injection was taken to represent the binding value of the particular sample. Biosensor matrices were regenerated using 100 mM HCl before injection of the next sample. To determine the dissociation constant (off-rate), association constant (on-rate), BIAcore kinetic evaluation software (version 2.1) was used.

The target of experiment [5] is T1, recombinant human IL-12 (rhIL-12). Description: cell-based or functional assay. The source holds these as a separate data set.
In another experiment the target is T4, murine IL-12 (mouse, UniProt P43431 23-215; P43432 23-335).
T4 construct: Purified or recombinant murine IL-12 (R&D Systems, Cat. No. 419-ML in the BIAcore test); also called mouse IL-12; rmIL12
T4 sequence (looked up) 1: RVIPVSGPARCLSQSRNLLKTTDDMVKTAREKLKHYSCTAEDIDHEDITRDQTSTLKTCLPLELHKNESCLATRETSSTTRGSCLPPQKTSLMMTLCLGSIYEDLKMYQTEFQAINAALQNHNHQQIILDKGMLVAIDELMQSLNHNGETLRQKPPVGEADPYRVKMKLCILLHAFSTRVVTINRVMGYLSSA
T4 sequence (looked up) 2: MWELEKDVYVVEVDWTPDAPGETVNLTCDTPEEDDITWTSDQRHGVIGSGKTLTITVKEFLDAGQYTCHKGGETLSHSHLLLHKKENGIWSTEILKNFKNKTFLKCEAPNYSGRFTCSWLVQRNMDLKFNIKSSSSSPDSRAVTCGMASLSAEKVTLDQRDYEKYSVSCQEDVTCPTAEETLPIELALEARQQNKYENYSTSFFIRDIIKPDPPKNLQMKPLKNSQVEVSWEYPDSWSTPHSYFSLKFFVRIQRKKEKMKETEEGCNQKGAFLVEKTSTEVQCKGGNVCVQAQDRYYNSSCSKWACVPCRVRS
The experiment in a line: neutralization bioassay with non-human IL-12 (murine 2D6 cell proliferation). The protocol:
2D6 cells were washed once and resuspended in RPMI complete medium containinγβME to a cell density of 1×10⁵ cells/ml. […] The culture contents were harvested and counted by liquid scintillation counting. All samples were assayed in duplicate.

“And” between values parts separate entries of the source, which are not always exact repeats. Identical values can stand only once.

B1: J695 (antibody, human IgG1, V domains shown)
VH: QVQLVESGGGVVQPGRSLRLSCAASGFTFSSYGMHWVRQAPGKGLEWVAFIRYDGSNKYYADSVKGRFTISRDNSKNTLYLQMNSLRAEDTAVYYCKTHGSHDNWGQGTMVTVSS
VL: QSVLTQPPSVSGAPGQRVTISCSGSRSNIGSNTVKWYQQLPGTAPKLLIYYNDQRPSGVPDRFSGSKSGTSASLAITGLQAEDEADYYCQSYDRYTHPALLFGTGTKVTVLG
notes: human IgG1 with lambda light chain
On to B1, for which the Kd (commonly the constant that tells how readily two partners part at equilibrium) in experiment [1] is 0.0974 nM and 0.014 µg/mL. For the same molecule, in experiment [2], the “IC50 (M), bioassay, Human IL-12 Purified” value turned out to be 5e-12 M. Also, the “IC50 (M), bioassay, Dog IL-12 PBMC sup” value in experiment [3] is 3.5e-10 M. Moreover, in experiment [4], the IC50 (as a rule, the concentration needed to halve the response being measured) was found to be 11 pM. In addition, in the experiment with recombinant murine IL-12, the binding result was “no binding”. In addition, the “PHA blast IC50” value in experiment [5] amounted to 5.8 pM.

B2: J695 (antibody, V domains shown)
VH: QVQLVESGGGVVQPGRSLRLSCAASGFTFSSYGMHWVRQAPGKGLEWVAFIRYDGSNKYYADSVKGRFTISRDNSKNTLYLQMNSLRAEDTAVYYCKTHGSHDNWGQGTMVTVSS
VL: QSVLTQPPSVSGAPGQRVTISCSGSRSNIGSNTVKWYQQLPGTAPKLLIYYNDQRPSGVPDRFSGSKSGTSASLAITGLQAEDEADYYCQSYDRYTHPALLFGTGTKVTVLG
notes: Human IgG1 with lambda light chain (detected with anti-human lambda); Made in CHO or COS cells
Regarding B2, the binding result with murine IL-12 is recorded as “no binding”.
